# Data: US20140348819A1, “Methods of Treating Cancer” (Dana-Farber Cancer Institute, Inc., priority 2011, published 2014)
# B1: Pleiotrophin (protein, UniProt P21246 33-168, looked up)
# Pleiotrophin: GKKEKPEKKVKKSDCGEWQWSVCVPTSGDCGLGTREGTRTGAECKQTMKTQRCKIPCNWKKQFGAECKYQFQAWGECDLNTALKTRTGSLKRALHNAECQKTVTISKPCGKLTKPKPQAESKKKKKEGKKQEKMLD
# Tested on: six V600E BRAF melanoma cell lines
# Assay: Screening of recombinant RTK ligands for ability to confer resistance to BRAFi (PLX4720) or MEKi (PD184352) (Table 4)
# Assay type: cell-based, human
# Design: ability of recombinant RTK ligand to confer resistance / ability of recombinant RTK ligand to confer resistance (screening value): scale not given here
# How it was run: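 Resistance to BRAFi (PLX4720) or MEKi (PD184352) was tested in six V600E BRAF melanoma lines given one of 22 recombinant RTK ligands. For a subset of RTKs, activation was checked by high-throughput tyrosine kinase phosphorylation profiling and western blot.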
molecule,measurement,setting,value
B1,ability of recombinant RTK ligand to confer resistance,"A2058, PD184352 - 1 uM, ligand 3.9 ng/ml",1.06
same,ability of recombinant RTK ligand to confer resistance,"A2058, PD184352 - 1 uM, ligand 15.625 ng/ml",1.07
same,ability of recombinant RTK ligand to confer resistance,"A2058, PD184352 - 1 uM, ligand 62.5 ng/ml",1.03
same,ability of recombinant RTK ligand to confer resistance,"A2058, PD184352 - 1 uM, ligand 250 ng/ml",1.00
same,ability of recombinant RTK ligand to confer resistance,"A2058, PD184352 - 1 uM, ligand 1000 ng/ml",0.87
same,ability of recombinant RTK ligand to confer resistance,"A2058, PLX4720 - 2 uM, ligand 3.9 ng/ml",1.03
same,ability of recombinant RTK ligand to confer resistance,"A2058, PLX4720 - 2 uM, ligand 15.625 ng/ml",1.04
same,ability of recombinant RTK ligand to confer resistance,"A2058, PLX4720 - 2 uM, ligand 62.5 ng/ml",1.04
same,ability of recombinant RTK ligand to confer resistance,"A2058, PLX4720 - 2 uM, ligand 250 ng/ml",1.02
same,ability of recombinant RTK ligand to confer resistance,"A2058, PLX4720 - 2 uM, ligand 1000 ng/ml",0.93
same,ability of recombinant RTK ligand to confer resistance,"C32, PD184352 - 1 uM, ligand 3.9 ng/ml",1.07
same,ability of recombinant RTK ligand to confer resistance,"C32, PD184352 - 1 uM, ligand 15.625 ng/ml",1.08
same,ability of recombinant RTK ligand to confer resistance,"C32, PD184352 - 1 uM, ligand 62.5 ng/ml",1.07
same,ability of recombinant RTK ligand to confer resistance,"C32, PD184352 - 1 uM, ligand 250 ng/ml",1.12
same,ability of recombinant RTK ligand to confer resistance,"C32, PD184352 - 1 uM, ligand 1000 ng/ml",0.99
same,ability of recombinant RTK ligand to confer resistance,"C32, PLX4720 - 2 uM, ligand 3.9 ng/ml",1.01
same,ability of recombinant RTK ligand to confer resistance,"C32, PLX4720 - 2 uM, ligand 15.625 ng/ml",1.04
same,ability of recombinant RTK ligand to confer resistance,"C32, PLX4720 - 2 uM, ligand 62.5 ng/ml",0.95
same,ability of recombinant RTK ligand to confer resistance,"C32, PLX4720 - 2 uM, ligand 250 ng/ml",0.96
same,ability of recombinant RTK ligand to confer resistance,"C32, PLX4720 - 2 uM, ligand 1000 ng/ml",0.87
same,ability of recombinant RTK ligand to confer resistance,"Colo 829, PD184352 - 1 uM, ligand 3.9 ng/ml",1.05
same,ability of recombinant RTK ligand to confer resistance,"Colo 829, PD184352 - 1 uM, ligand 15.625 ng/ml",0.99
same,ability of recombinant RTK ligand to confer resistance,"Colo 829, PD184352 - 1 uM, ligand 62.5 ng/ml",0.99
same,ability of recombinant RTK ligand to confer resistance,"Colo 829, PD184352 - 1 uM, ligand 250 ng/ml",0.96
same,ability of recombinant RTK ligand to confer resistance,"Colo 829, PD184352 - 1 uM, ligand 1000 ng/ml",0.95
same,ability of recombinant RTK ligand to confer resistance,"Colo 829, PLX4720 - 2 uM, ligand 3.9 ng/ml",1.03
same,ability of recombinant RTK ligand to confer resistance,"Colo 829, PLX4720 - 2 uM, ligand 15.625 ng/ml",0.96
same,ability of recombinant RTK ligand to confer resistance,"Colo 829, PLX4720 - 2 uM, ligand 62.5 ng/ml",0.97
same,ability of recombinant RTK ligand to confer resistance,"Colo 829, PLX4720 - 2 uM, ligand 250 ng/ml",0.36
same,ability of recombinant RTK ligand to confer resistance,"Colo 829, PLX4720 - 2 uM, ligand 1000 ng/ml",0.98
same,ability of recombinant RTK ligand to confer resistance,"G-361, PD184352 - 1 uM, ligand 3.9 ng/ml",0.96
same,ability of recombinant RTK ligand to confer resistance,"G-361, PD184352 - 1 uM, ligand 15.625 ng/ml",0.96
same,ability of recombinant RTK ligand to confer resistance,"G-361, PD184352 - 1 uM, ligand 62.5 ng/ml",0.97
same,ability of recombinant RTK ligand to confer resistance,"G-361, PD184352 - 1 uM, ligand 250 ng/ml",0.92
same,ability of recombinant RTK ligand to confer resistance,"G-361, PD184352 - 1 uM, ligand 1000 ng/ml",0.92
same,ability of recombinant RTK ligand to confer resistance,"G-361, PLX4720 - 2 uM, ligand 3.9 ng/ml",1.04
same,ability of recombinant RTK ligand to confer resistance,"G-361, PLX4720 - 2 uM, ligand 15.625 ng/ml",0.97
same,ability of recombinant RTK ligand to confer resistance,"G-361, PLX4720 - 2 uM, ligand 62.5 ng/ml",0.94
same,ability of recombinant RTK ligand to confer resistance,"G-361, PLX4720 - 2 uM, ligand 250 ng/ml",0.94
same,ability of recombinant RTK ligand to confer resistance,"G-361, PLX4720 - 2 uM, ligand 1000 ng/ml",1.00
same,ability of recombinant RTK ligand to confer resistance,"SK-MEL-5, PD184352 - 1 uM, ligand 3.9 ng/ml",0.93
same,ability of recombinant RTK ligand to confer resistance,"SK-MEL-5, PD184352 - 1 uM, ligand 15.625 ng/ml",1.00
same,ability of recombinant RTK ligand to confer resistance,"SK-MEL-5, PD184352 - 1 uM, ligand 62.5 ng/ml",1.02
same,ability of recombinant RTK ligand to confer resistance,"SK-MEL-5, PD184352 - 1 uM, ligand 250 ng/ml",1.08
same,ability of recombinant RTK ligand to confer resistance,"SK-MEL-5, PD184352 - 1 uM, ligand 1000 ng/ml",1.11
same,ability of recombinant RTK ligand to confer resistance,"SK-MEL-5, PLX4720 - 2 uM, ligand 3.9 ng/ml",0.92
same,ability of recombinant RTK ligand to confer resistance,"SK-MEL-5, PLX4720 - 2 uM, ligand 15.625 ng/ml",0.89
same,ability of recombinant RTK ligand to confer resistance,"SK-MEL-5, PLX4720 - 2 uM, ligand 62.5 ng/ml",0.95
same,ability of recombinant RTK ligand to confer resistance,"SK-MEL-5, PLX4720 - 2 uM, ligand 250 ng/ml",1.07
same,ability of recombinant RTK ligand to confer resistance,"SK-MEL-5, PLX4720 - 2 uM, ligand 1000 ng/ml",0.97
same,ability of recombinant RTK ligand to confer resistance,"SK-MEL-28, PD184352 - 1 uM, ligand 3.9 ng/ml",1.11
same,ability of recombinant RTK ligand to confer resistance,"SK-MEL-28, PD184352 - 1 uM, ligand 15.625 ng/ml",0.98
same,ability of recombinant RTK ligand to confer resistance,"SK-MEL-28, PD184352 - 1 uM, ligand 62.5 ng/ml",0.93
same,ability of recombinant RTK ligand to confer resistance,"SK-MEL-28, PD184352 - 1 uM, ligand 250 ng/ml",1.02
same,ability of recombinant RTK ligand to confer resistance,"SK-MEL-28, PD184352 - 1 uM, ligand 1000 ng/ml",0.87
same,ability of recombinant RTK ligand to confer resistance,"SK-MEL-28, PLX4720 - 2 uM, ligand 3.9 ng/ml",1.04
same,ability of recombinant RTK ligand to confer resistance,"SK-MEL-28, PLX4720 - 2 uM, ligand 15.625 ng/ml",0.95
same,ability of recombinant RTK ligand to confer resistance,"SK-MEL-28, PLX4720 - 2 uM, ligand 62.5 ng/ml",0.95
same,ability of recombinant RTK ligand to confer resistance,"SK-MEL-28, PLX4720 - 2 uM, ligand 250 ng/ml",0.96
same,ability of recombinant RTK ligand to confer resistance,"SK-MEL-28, PLX4720 - 2 uM, ligand 1000 ng/ml",0.89
